Article PMC5748978

Biological target: GST-Abp1^SH3 (UniProt Q62418)
Experiment: pull-down

## endogenous Cobl-like from rat brain extracts (natural protein)
  increase of complex formation with 2 µM Ca2+ over Ca2+-free control: 46%
